From article PMC4595974 come the findings set out here.

The experiment concerns the target Aβ42 fibrils (fibrillar Aβ(M1-42)). Description: SPR.

Broadly, the Kd is the constant that tells how readily two partners part at equilibrium. High values mean a looser complex, low ones a tighter complex. “Brichos domain from proSP-C (lung surfactant C precursor protein) (domain or fragment)”: the equilibrium dissociation constant (Kd) was 40 nM.
